Test results taken from patent US10378034B2, “Use of a N-acetylneuraminate lyase derived from the bacterium Aliivibrio salmonicida in the production of neuraminic acid and derivatives thereof” (Universitetet i Tromsø-Norges Arktiske Universitet, priority 2014, dated 2019).

How the values were obtained:
[1] = Thermofluor thermal denaturation; assay type: physicochemical
Method: Long term stability of AsNAL at different pH was studied by incubating the enzyme at pH values from 6.0 to 11.0 at room temperature for a month. Buffers used were Sodium phosphate (pH 6.0-7.0), HEPES (pH 7.0-8.0), Tris-HCl (pH 8.0-9.0) and glycine (pH 9.0-11.0). The enzyme activity in the condensation direction was measured using the standard reaction mixture incubated at room temperature for 1 h, with subsequent TBA assay. The stability of AsNAL at different pH was also studied using the thermofluor method described by Ericsson et al. (2006) where increased or decreased stability is related to the increase or decrease in the melting temperature of the protein. For the thermofluor assay, the protein was dialyzed overnight at 4° C. against a buffer containing 10 mM HEPES pH 7.5, 150 mM NaCl and 2 mM β-ME in Pierce Slide-A-Lyzer dialysis cassettes with a 3.5 kDa cutoff. The dialyzed protein was mixed with 2 μl of 300× Sypro® Orange protein gel stain (Sigma) and 100 mM of different buffers ranging from pH 5.0 to pH 9.0. Thermal shifts were screened for by heating in an iCycler iQ Real Time PCR Detection System (Bio-Rad Laboratories) from 1 to 80° C. in increments of 1° C./min. […]

[2] = Comparative specific activity, cleavage reaction (TBA assay); assay type: biochemical
Method: (§1) The cleavage activity was determined by incubating 50 μl of a reaction mixture containing 5 mM Neu5Ac, 124 mM HEPES pH 8.0 and different concentrations of enzyme depending on assay type at selected temperatures for the required amount of time. Termination of the reactions and subsequent steps of the assay are as described above. The decrease in absorbance is correlated to the increase in cleavage activity.
Standard reaction mixtures were incubated at room temperature for 1 h before being subjected to the TBA assay.

[3] = Differential scanning calorimetry (DSC); assay type: physicochemical; details: 500 mM NaCl, 50 mM HEPES pH 7.5
Method: The melting temperature of AsNAL was studied by differential scanning calorimetry (DSC). The pure protein was dialyzed overnight at 4° C. against a buffer containing 50 mM HEPES, pH 7.5 and 500 mM NaCl in a Pierce Slide-A-Lyzer dialysis cassette (3.5 kDa cut-off). Dialyzed protein was concentrated to 1.9 mg/ml using a 10 kDa cutoff Amicon Ultra spin-column (Millipore), filtered through a 0.2 μm filter (Millipore) and degassed for 15 min. DSC experiments were carried out with a Nano-Differential Scanning Calorimeter III, (calorimetry Sciences Corporation) at a scan rate of 1° C./min in the range from 1 to 80° C. and with a constant pressure of 3 atm. The dialysis buffer was used as reference in the DSC runs. The melting temperature of the protein was calculated by subtracting the buffer-buffer baseline from the protein scan. Refolding experiments were carried out by a reverse cooling scan, allowing the unfolded protein to be kept at 4° C. overnight before a new forward scan was done. The NanoAnalyze™ software was used to calculate the melting temperature. The experimental transition curves were fitted on a two-state transition model.

[4] = TBA assay, cleavage activity: pH and temperature profiles; assay type: biochemical
Method: as §1
pH profiles were determined by assaying the enzyme in triplicate for both condensation and cleavage directions at pH values ranging from 5.5 to 11.0 with 0.5 pH unit intervals. Sodium phosphate buffer was used from pH 5.5 to 7.5, HEPES buffer from pH 6.5 to 8.0, Tris-HCl buffer from pH 7.5 to 9.0 and Glycine buffer from pH 9.0 to 11.0. The reaction mixture was incubated at room temperature for 1 h before being subjected to the TBA assay. Temperature profiles were determined for both directions by assaying the enzyme in triplicate from 4 to 80° C. in HEPES buffer pH 8.0. The reaction mixture was incubated for 30 min at selected temperatures and the reaction was terminated by adding 2 μl of concentrated H2SO4 and then subjected to the TBA assay.

[5] = TBA assay, condensation activity: pH and temperature profiles; assay type: biochemical
Method: Both the condensation and cleavage activities of NAL were assessed using the modified thiobarbituric acid (TBA) assay developed by Aminoff (1961) and Warren (1959). The condensation activity was determined by incubating 50 μl of a reaction mixture containing 15 mM sodium pyruvate, 15 mM ManNAc, 124 mM HEPES pH 8.0 and different concentrations of enzyme depending on assay type at selected temperatures for the required amount of time. The reaction was terminated by adding 137 μl 2.5 mg/ml sodium periodate in 57 mM H2SO4, followed by incubation at 37° C. for 15 min with shaking at 1350 rpm. Sodium arsenite (50 μl, 25 mg/ml sodium arsenite in 0.5 M HCl) was added resulting in brown color. The tubes were shaken manually until the brown color disappeared. 2-thiobarbituric acid solution (100 μl, 71 mg/ml adjusted to pH 9.0) was subsequently added, and the tubes were incubated in boiling water for 7.5 min. […] The organic phase containing the red chromophore (200 μl) was used for measurement of absorbance at 549 nm in a spectrophotometer (SpectraMax M2e, Molecular Devices). […]
pH profiles were determined by assaying the enzyme in triplicate for both condensation and cleavage directions at pH values ranging from 5.5 to 11.0 with 0.5 pH unit intervals. […] Temperature profiles were determined for both directions by assaying the enzyme in triplicate from 4 to 80° C. in HEPES buffer pH 8.0. […]

[6] = at 10° C., relative to highest value

B1: AsNAL: N-acetylneuraminate lyase isolated from the psychrophilic bacterium Aliivibrio salmonicida LFI1238, recombinantly expressed in E. coli (protein, listed as Aliivibrio salmonicida)
chain: MKKLTGLIAAPHTPFDSSSNVNFEEIDKIAKHLINDGVKGIYVCGTTGEGIHCSVEERKAIAERWVSACNHKLDIIVHTGALSIVDTLELTRHADTLDILATSAIGPCFFKPGSVSDLVEYCATIAAAAPSKGFYYYHSGMSGVNLNMEEFLIQADKRIPNLSGLKFNSGDLYEYQRCLRACDGKFDVPFGVDEFLPGALAVGAKSAVGSTYNYAAPHFNSIIEAFNKGDHDAVFNKMTNVIELIRVLVEFGGVAAGKIAMELHDINAGDPRLPLMPLSAEQKLTVVEKMRAANFLK
melting temperature (thermofluor) ([1]; 500 mM NaCl): 76.9 °C
melting temperature (thermofluor) ([1]; milli-Q water): 73.15±0.21 °C
specific activity of the cleavage reaction, higher than EcNAL ([2]; 4° C.): 25%
specific activity of the cleavage reaction, higher than EcNAL ([2]; 23° C.): 35%
specific activity of the cleavage reaction, higher than EcNAL ([2]; 37° C.): 35%
melting temperature (DSC) [3]: 77.5 °C
ΔH (DSC) [3]: 179.164 kcal/mol
ΔS (DSC) [3]: 2.137 kJ/(mol·K)
optimal temperature, cleavage reaction ([4]; HEPES buffer pH 8.0, 30 min): 65 °C
cleavage activity retained [4, 6]: 30%
optimal temperature, condensation reaction ([5]; HEPES buffer pH 8.0, 30 min): 20 °C
condensation activity retained [5, 6]: 75%
